Data on 2 proteins can be found in PMC9008408.

A short description of data set [1]: anti-Flag IP, ubiquitin blot, MG132, A549-LV-TIM-4-Flag. To be noted: glycan lost; control: no TM.
Data set [2] in a line: CHX chase, western blot of remaining protein, HEK293. Particulars: glycan lost; control: wild type TIM-4, no TM. For orientation: Immunoblotting shows a protein as a band on a membrane.
A short description of data set [3]: anti-HA IP, ubiquitin blot, MG132, A549. To be noted: glycan lost; control: wild type TIM-4.
The nature of data set [4]: confocal immunofluorescence, mCherry-Sec61b ER marker, A549. Particulars: glycan lost; control: wild type TIM-4.

B1: TIM-4: TM (protein)
parent chain: MSKEPLILWLMIEFWWLYLTPVTSETVVTEVLGHRVTLPCLYSSWSHNSNSMCWGKDQCPYSGCKEALIRTDGMRVTSRKSAKYRLQGTIPRGDVSLTILNPSESDSGVYCCRIEVPGWFNDVKINVRLNLQRASTTTHRTATTTTRRTTTTSPTTTRQMTTTPAALPTTVVTTPDLTTGTPLQMTTIAVFTTANTCLSLTPSTLPEEATGLLTPEPSKEGPILTAESETVLPSDSWSSVESTSADTVLLTSKESKVWDLPSTSHVSMWKTSDSVSSPQPGASDTAVPEQNKTTKTGQMDGIPMSMKNEMPISQLLMIIAPSLGFVLFALFVAFLLRGKLMETYCSQKHTRLDYIGDSKNVLNDVQHGREDEDGLFTL
On to B1, for which the “other: ubiquitination” value in data set [1] was “increases”. Moreover, the degradation_or_half_life entry in data set [2] was “decreases”.

B2: TIM-4: N291Q (protein)
parent chain: MSKEPLILWLMIEFWWLYLTPVTSETVVTEVLGHRVTLPCLYSSWSHNSNSMCWGKDQCPYSGCKEALIRTDGMRVTSRKSAKYRLQGTIPRGDVSLTILNPSESDSGVYCCRIEVPGWFNDVKINVRLNLQRASTTTHRTATTTTRRTTTTSPTTTRQMTTTPAALPTTVVTTPDLTTGTPLQMTTIAVFTTANTCLSLTPSTLPEEATGLLTPEPSKEGPILTAESETVLPSDSWSSVESTSADTVLLTSKESKVWDLPSTSHVSMWKTSDSVSSPQPGASDTAVPEQNKTTKTGQMDGIPMSMKNEMPISQLLMIIAPSLGFVLFALFVAFLLRGKLMETYCSQKHTRLDYIGDSKNVLNDVQHGREDEDGLFTL
On to B2, for which the “other: ubiquitination” value in data set [3] is “increases”. Moreover, the localisation_or_trafficking entry in data set [4] was “changes, co-localized with the ER-tracker compared with wild type TIM-4”.
